According to patent US6001823A, “Treatment or prophylaxis of diseases caused by pilus-forming bacteria” (priority 1995, dated 1999):

Key:
[1] = target: T1, PapD (Escherichia coli, UniProt P15319); assay: ELISA: PapD binding to peptides coated on microtiter wells; parameters: made in house; species or system E. coli; details: for binding of PapD to immobilized peptide: peptide coated on microtiter wells, ELISA
T1 sequence (P15319 22-239): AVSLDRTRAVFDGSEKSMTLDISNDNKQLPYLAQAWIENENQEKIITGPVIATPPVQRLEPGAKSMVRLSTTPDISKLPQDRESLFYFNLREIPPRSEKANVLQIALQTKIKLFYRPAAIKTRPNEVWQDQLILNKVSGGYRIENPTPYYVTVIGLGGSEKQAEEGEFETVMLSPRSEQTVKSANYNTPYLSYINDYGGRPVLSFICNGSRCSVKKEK
Description: The residues in the peptides were numbered starting with the carboxyl terminal residue as 1, and ending with the amino terminal residue. Peptides were also synthesized which deviated in length (G1'-16'WT, G1'-11'WT, G1'-7'WT) or sequence (G2'-21'amide, G1'-19'SV, G1'-19'NH2) from the wild type PapG carboxyl terminal sequence. Using an enzyme-linked immunosorbent assay (ELISA), we tested the ability of PapD to bind to each peptide coated on wells of microtiter plates:
5 mg/ml stock solutions of peptides in water or 50% acetic acid were diluted to a concentration of 2.5 pmol/50 μl in PBS. 50 μl of the peptide solution was coated overnight onto microtiter wells (Nunc-Immuno Plate Maxisorp) at 4° C. The solutions in the plates were discarded, and the wells were blocked with 200 μl 3% bovine serum albumin (BSA, Sigma) in PBS (120 mM NaCl/2.7 mM KCl/10 mM phosphate buffer salts, pH 7.4) for 2 hours at 25° C. The plates were washed vigorously 3 times with PBS and incubated with 50 μl of the indicated amount of purified PapD (Lindberg et al, 1989). After 3 washes with PBS, the wells were incubated with a 1:500 dilution of anti-PapD rabbit antiserum (Lindberg et al, 1989) in 3% BSA/PBS for 45 min. at 25° C. After 3 washes with PBS, the wells were incubated with a 1:1000 dilution of goat anti-rabbit IgG coupled to alkaline phosphatase (Sigma) in 3% BSA/PBS for 45 min. at 25° C. Following 3 washes with PBS and 3 washes with developing buffer (10 mM diethanolamine pH 9.5, 0,5 mM MgCl2), 50 μl filtered p-nitrophenyl phosphate substrate (Sigma) in developing buffer (10 mg/ml) was added. The absorbance at 405 nm was read after 60 min of incubation in the dark at 25° C.

[2] = target: T1, PapD; assay: Soluble inhibition ELISA: peptide inhibition of PapD binding to G1'-19'WT-coated wells; parameters: made in house; species or system E. coli; details: for % Inhibition: 25-fold molar excess of peptide, 100 pmol/well PapD, G1'-19'WT-coated wells; for inhibition of PapD binding to immobilized G1'-19'WT by soluble peptide: peptide in solution
Description: In addition, the ability of water-soluble peptides to inhibit PapD binding to G1'-19'WT-coated wells in a soluble inhibition ELISA were tested, since peptide conformations may have been affected by binding to the plastic microtiter plates:
Microtiter wells were coated overnight at 4° C. with 50 μl of 2,5 pmol/50 μl of the G1'-19'WT peptide. The wells were washed with PBS and blocked with 3% bovine serum albumin (BSA). A 25-fold molar excess of each test peptide was pre-incubated with 100 pmoles PapD for 30 min. and the PapD-peptide solution was then added to the coated wells and incubated at 25° C. for 45 min in the presence of 3% BSA/PBS. The subsequent primary antibody, secondary antibody and developing steps are described above. The ability of the peptides to inhibit binding of PapD to the G1'-19'WT peptide was calculated by dividing the amount of PapD binding in the presence of peptide with the amount of PapD binding in the presence of water. 0% inhibition includes values where binding was greater than that of PapD pre-incubated with H2 O.
The % inhibition represents the percentage of PapD binding in the presence of the peptide compared to in the presence of water and are the average of two experiments performed duplicate: […]

Row | Substance | binding of PapD to immobilized peptide [1] | % Inhibition [2] [%] | inhibition of PapD binding to immobilized G1'-19'WT by soluble peptide [2] | reduction of binding of PapD to the immobilized peptide ([1]; variant of the PapG carboxyl terminal peptide, immobilized) [%]
1 | NH2--YALAPNAVIPTSLALL--COOH (H-YALAPNAVIPTSLALL-OH) [MS, random hydrophobic peptide, reference compound] | no binding | 1 | – | –
2 | NH2--GILNGGDFQTTASMAMIYN--COOH (H-GILNGGDFQTTASMAMIYN-OH) [F1'-19'WT] | moderately | – | – | –
3 | NH2--GKRKPGELSGSMTMVLSFP--CONH2 (H-GKRKPGELSGSMTMVLSFP-NH2) [G1'-19'amide] | did not affect binding | 56 | did not affect binding | –
4 | NH2--GKRKPVELSGSMTMVLSSP--COOH (H-GKRKPVELSGSMTMVLSSP-OH) [G1'-19'SV] | – | – | as efficient a soluble PapD inhibitor as the peptide G1'-19'WT | 36
5 | NH2--KKLEAGNYFAVLGFRVDYE--COOH (H-KKLEAGNYFAVLGFRVDYE-OH) [H1'-19'WT] | no binding | – | – | –
